From PMC2111050, “Human RECQ1 Is a DNA Damage Responsive Protein Required for Genotoxic Stress Resistance and Suppression of Sister Chromatid Exchanges” (PLoS ONE, 2007)

Biological target: T1, Recombinant human RECQ1 helicase (human, UniProt P46063 1-649)
T1 construct: RECQ1 (RECQL) helicase, human; the gene encodes a 649 amino acid protein of 73 kDa; also called RECQL
T1 sequence (looked up): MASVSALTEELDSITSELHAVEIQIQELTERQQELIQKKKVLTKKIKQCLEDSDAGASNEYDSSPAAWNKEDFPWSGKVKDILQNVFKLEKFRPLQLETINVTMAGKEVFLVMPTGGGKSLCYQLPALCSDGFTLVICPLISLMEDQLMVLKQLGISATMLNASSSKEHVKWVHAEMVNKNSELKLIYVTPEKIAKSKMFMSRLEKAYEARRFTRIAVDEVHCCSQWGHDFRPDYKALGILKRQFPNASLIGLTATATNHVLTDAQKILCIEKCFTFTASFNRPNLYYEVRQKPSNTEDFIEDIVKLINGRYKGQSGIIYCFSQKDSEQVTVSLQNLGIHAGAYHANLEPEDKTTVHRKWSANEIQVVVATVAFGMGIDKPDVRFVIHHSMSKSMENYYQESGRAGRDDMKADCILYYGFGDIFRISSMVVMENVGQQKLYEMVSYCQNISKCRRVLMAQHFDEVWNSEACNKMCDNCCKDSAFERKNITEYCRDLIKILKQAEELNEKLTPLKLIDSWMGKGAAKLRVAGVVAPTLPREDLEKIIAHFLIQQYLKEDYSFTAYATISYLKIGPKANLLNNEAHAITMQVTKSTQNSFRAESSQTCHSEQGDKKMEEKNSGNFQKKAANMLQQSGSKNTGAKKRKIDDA
Assay: ELISA; RECQ1 (14 nM; 1 ng/µl, 50 µl) or BSA coated on wells in carbonate buffer pH 9.6; Rad51 0-76 nM in PBS, 0.5% Tween-20, 3% BSA, 1 h at 30°C; detected with rabbit anti-Rad51; Scatchard analysis, apparent Kd; similar signal with DNaseI (100 U/ml) or EtBr (50 µg/ml)
Details: both partners purified

Kd: 11.9 ± 2.1 nM
B1: Purified recombinant human Rad51 (natural protein, UniProt Q06609 1-339, looked up)
chain: MAMQMQLEANADTSVEEESFGPQPISRLEQCGINANDVKKLEEAGFHTVEAVAYAPKKELINIKGISEAKADKILAEAAKLVPMGFTTATEFHQRRSEIIQITTGSKELDKLLQGGIETGSITEMFGEFRTGKTQICHTLAVTCQLPIDRGGGEGKAMYIDTEGTFRPERLLAVAERYGLSGSDVLDNVAYARAFNTDHQTQLLYQASAMMVESRYALLIVDSATALYRTDYSGRGELSARQMHLARFLRMLLRLADEFGVAVVITNQVVAQVDGAAMFAADPKKPIGGNIIAHASTTRLYLRKGRGETRICKIYDSPCLPEAEAMFAINADGVGDAKD
notes: Rad51 strand exchange protein, human; source: provided by Dr. Ian Hickson (Cancer Research UK Laboratories); purified recombinant
